Assays:
[1] = test system: yeast cells; test: Yeast growth (turbidity A600) in the presence of CBD; type: cell-based, Saccharomyces cerevisiae (strain Y1HGold); settings: 0.5 mM CBD; for inhibition of yeast growth in response to CBD, transporter-expressing yeast vs control yeast: 7-12 hours
Method: (§1) The genes were expressed in yeast and tobacco. For yeast, the ABC and PTR Transporter genes were synthesized by the TWIST Co, cloned and expressed (individually) in the yeast expression vector pESC-URA (Agilent Technologies) for expression under the yeast native gal-10 promoter. Competent Saccharomyces cerevisiae (strain Y1HGold, CloneTech) cells were prepared, transformed by each of the resulting vector and selected on yeast synthetic media lacking Uracil as previously described [GietzR. D., Methods Mol. Biol. (2014) 1205:1-12].
An alternative method is to measure the yeast growth as a function of turbidity. Transformed yeast cells were grown on URA-glucose broth at 30° C. at 200 RPM, and after 24 hours 100 μl was used to inoculate 5 ml of URA-galactose broth in the same conditions till O.D.600 of 1.5. The yeast was further diluted to OD600=0.05 with 10 ml URA-galactose, and divided into two 5 ml aliquots into separate 50 ml falcon tubes. The first falcon (control) was added 78 μl acetonitrile (the solvent that the CBD was dissolved in), and the second one was added 78 μl CBD solution in acetonitrile (final CBD concentration=0.5 mM). […]

[2] = test system: tobacco BY-2 cells; test: CBD-induced cell death of tobacco BY-2 cells (FDA fluorescence); type: cell-based; settings: 0.5 mM CBD
Excerpt: (§2) For tobacco, the ABC and PTR Transporter genes were cloned into a plant binary expression vector (pGreen 0029) via Agrobacterium mediated transformation as previously described [Cohen, S. et at, Nat. Commun. (2014) 5:4026]. These genes were cloned between the cauliflower mosaic virus (CaMl,) 35S promoter and the polyadenylation signal from the nopaline synthase gene and inserted into tobacco BY2 cells and plants (var. Samson) via stable transformation..
The toxic effect and cell death activity of terpenes and cannabinoids in tobacco was assessed on cell cultures as follows: 7-day-old suspension cultured BY-2 tobacco cells at a 5-fold dilution in logarithmic growth phase, incubated in Gamborg B5 medium, was incubated in the presence of 0.5 mM CBD for 48 hours as previously described [Sirikantaramas S. et al., Plant Cell Physiol. (2005) 46:1578-1582].
Cell death in the samples was evaluated using the cell viability indicator fluorescein diacetate (FDA, Sigma-Aldrich). Cell suspension (2.5 mL) was stained with 50 μL of 0.5% fluorescein diacetate (FDA) dissolved in acetone for 10 min. The cells were rinsed three times with I mL isotonic medium to remove excess staining solution. Viability was assessed immediately using an Olympus BX50 fluorescence microscope equipped with a suitable barrier filter (excitation 460-490 nm and emission 510 nm). FDA staining of viable cells results in bright green fluorescence, while nonviable cells remain colorless.

[3] = test system: tobacco BY-2 cells; test: Uptake of CBD into tobacco BY-2 cells; type: cell-based; settings: 0.5 mM CBD
Excerpt: as §2
[…] The pellet was weighed and underwent HPLC analysis to determine the pellet CBD content, as indicated above.

[4] = test system: yeast cells; test: Uptake of CBD into yeast cells; type: cell-based, Saccharomyces cerevisiae (strain Y1HGold); settings: 0.5 mM CBD; for net uptake of CBD into yeast cells compared to control (empty vector) yeast: three hour incubation, FIG. 3A and FIG. 4
Method: as §1
An additional strategy for determining transporter function is to measure the amount of exogenous CBD taken up and incorporated into the cells.
Transformed yeast cells were grown on URA-glucose broth at 30° C. at 200 RPM, and after 24 hours 100 μl was used to inoculate 5 ml of URA-galactose broth in the same conditions till OD600 of […]. The yeast was incubated with 0.5 mM CBD for 2-8 hours in 30° C. at 100 RPM, then centrifuged at 15000 g for 1 minute, and washed twice with 1 ml distilled water. The pellet was weighed and underwent HPLC analysis to determine the pellet's CBD content. The pellet was extracted in 1 ml methanol, and following centrifugation and filter was analyzed by HPLC using a diode-array detector and CBD was quantified against a commercial standard.

C=C(C)[C@@H]1CCC(C)=C[C@H]1c1c(O)cc(CCCCC)cc1O [CBD, Cannabidiol, reference compound]
growth with CBD as % of growth without CBD ([1]; control (empty vector) yeast, 7-12 hours after initiation, FIG. 2): 42%
fluorescence (FDA viability) of control BY2 cells in the presence of CBD ([2]; control BY2 cells, FIG. 6A top): small decrease

B1: T-AG0100-1: Cannabis PTR/NRT transporter gene product, amino acid SEQ ID NO: 53 (protein)
chain: MNMEVMSRDFDQSGGGKRGGNRAAFFVYIMEGLESMAFISNSASLVIYFFSYMNYSLTKSSTMLTNLLGTATLLSLLGGFISDTYLTRFATTLIFASIELMGYIVLLVQAHRSDLRPPKCLSITHQCEGASAGEAAILYTGLYLMALGTGGVKAALPALGADQFDPKKAKQLSTYFNWFIFSLTIGSILGVTLVVWISTDKGWDWAFAVCAIALLLSIFFISLGNPFYRNNLPKGSPLLRFLRVFVASFRNRKLPIPENADELHEIYQDKEDDNLHHEILQRTDQFKFLDRAAVIRRTEDDDNDGSNSGSEWRVCTVTEVEETKILIRMLPIILTTIFMNTCLAQLQTFSVQQSVTMDRDFIGFEIPGPSVPAIPLLFMFILIPLYDRVFVPIARRVTGIPTGISHLQRIGIGLVLSAISMTVAGFVEKKRRNVAIQHDMVDSQDALPISVFWLGYQYAIFGAADMFTLVGMLEFFYAESSAGMKALSTAISWCSLAFGYYLSSVVVEIVNKVSGGWLANNNLNRDKLENFYWLLAGLSVVNFGVYVMCASWYKYKNVEMIKKDDAST
modifications: ABC+PTR Transporter amino acid sequence (of the 12 identified gene products)
effect on the uptake of CBD in tobacco BY-2 cells ([3]; 4 hour uptake, FIG. 5): strong effect
inhibition of yeast growth in response to CBD, transporter-expressing yeast vs control yeast ([1]; FIG. 2): reduced inhibition of growth
growth inhibition by CBD, time course of yeast growth vs empty vector yeast ([1]; 12 hour period, FIGS. 1A-B): reduced growth inhibition
fluorescence (FDA viability) of transporter-expressing BY2 cells in the presence of CBD ([2]; FIG. 6A bottom): strong decrease
cell death in response to CBD of BY-2 cells expressing the transporter ([2]; FIGS. 6A-B): increased cell death
net uptake of CBD into yeast cells compared to control (empty vector) yeast [4]: reduced net uptake of CBD

B2: T-792-1: Cannabis ABC-G transporter gene product, amino acid SEQ ID NO: 47 (protein)
chain: MASVTPSTTIDQEHYHNKKVTISRTTSTTSSNNNTNHGNPRITVVEIETANNRNASYRSSIFGADHEVSLPVVEDHQGVFLTWQDLWVTVSSGKNSNRPILRGLTGYAKPGELLAIMGPSGCGKSTLLDALAGRLNANTRQSGDILINGNKQTLAYGTSAYVTQEDTLLTTLTVREAVHYSAQLQLPDSMSSAEKKERAEMTIREMGLTDAVNTRIGGSGLGTGSKGLSGGQKRRVSICIEILTRPKLLFLDEPTSGLDSAASYYVMSSIASLDIQSRRGGGAGGRRTVVASIHQPSSEVFQLFNTLCLLSAGKIVYFGPASAANEFFTMSGFPCPSLQNPSDHFLKTINKDFDKVQKDLEQGLPIRGRPTVEEAIETLVKSYKASENCQLVQQQVSQICNKKNKSVGLMEKKRSHAGFISQCGVLTRRSFKNMYRDLGYYWFRLVIYIGLAIGLGTIFCNIGHSDGSVEARASLIMYVASFLTFMTIGGFPSFVEDMKVFGRERLNGHYSVTSFVMGNTISAQPYLVLIALIPGALAYFPPGLRGGFEHFIYFVLVLYACMMLVESLMMIVAALVPNFLLGIITGAGIQGFMMLAGGFFRLPNDLPDPFWRYPVFYISFHRYAFQGLYKNEFKGLMFVDEILGKSHKISGDEILRNKYQVNMSYSKWVDFVLLLSMVFAYRVMFLLILKISENYKTISAAFAFGRRKPSTQVMENPTATPPHA
modifications: ABC+PTR Transporter amino acid sequence (of the 12 identified gene products)
inhibition of yeast growth in response to CBD, transporter-expressing yeast vs control yeast ([1]; FIG. 2): reduced inhibition of growth
CBD levels in yeast cells compared to the control ([4]; 5 hour period, FIG. 3B): increase in CBD levels

B3: T-790-1: Cannabis ABC-B transporter gene product, amino acid SEQ ID NO: 46 (protein)
chain: MDNKTNKHRGGNGDGDDNEDQDQEDTKKNNNNNNSNKVSLLKLFSFADFYDYVLMGIGTIGAIIHGASVPIFFIFFGKLINVIGMAYLFPKEASHKVAKYSLDFVYLSIAILFSSWTEVACWMHTGERQAAKMRMAYLRAMLSQDISLFDTEASTGEVISAITSDIIVVQDALSEKVGNFLHYISRFVVGFIVGFARVWQISLVTLSIVPLIALAGGVYAYIATGLIARVRKSYVKAGEIAEEVIGNVRTVQAFAGEEKAVKMYTSALAHTYMYGRKAGLAKGLGLGFMHCTLFLSWSLLVWYVSIVVHKSIANGGESFTTMLNVVIAGLSLGQAALDISAFVRAKAAAYPIFAMIERNTASKSSAMSGRKLGKLEGHIQFNNVTFSYPSRPDVTIFNKLSLDIPSGKIVALVGGSGSGKSTVISLIERFYEPLSGEILLDGNNIKELDLKWMRQQIGLVNQEPALFATSIRENILYGKDEASLDEITRAAKLSEAISFINNLPERFETQVGERGIQLSGGQKQRIAISRAIVKNPSILLLDEATSALDAESEKSVQEALDRVMVGRTTVVVAHRLSTIRNADIIAVVQEGKIVETGCHDELISNPNSVYSSLVQLQEAAPLQRNSSLGRPPSIKFSRELSRTTTSFGASFRSDKDSISRVGADGGAVEPVKTTNVSAKRLYSMIGPDWLYGLCGTICAFIAGAQMPLFALGISHALVSYYMDWDTTKHEVKKISILFCCGAVVTVIVHGIEHLCFGTMGERLTLRVRERMFSAMLRNEIAWFDDTNNTSSMLSSRLESDATLLRTIVVDRSTILLQNVGLVVASFIIAFLLNWRITLVVLATYPLVISGHISEKLFMQGYGGNLSKAYLKANMLAGEAVSNIRTVAAFCAEQKVLDLYARELVEPSKRSFTRGQIAGIFYGISQFFIFSSYGLALWYGSVLMGKELSSFKSVMKSFMVLIVTALAMGETLALAPDLLKGNQMVASVFEVLDRKTEVSGDSGEELASVDGTIELRDIHFSYPSRPDVVIFKDFNLKVRSGKSMALVGQSGSGKSSVISIILRFYDPTSGKVLIDGKDMKKLKLKSLRKHIGLVQQEPALFATSIYENILYGKEGASESEVIEAAKLANAHSFISALPEGYSTKVGERGVQLSGGQRQRVAIARAVLKNPEILLLDEATSALDVESERVVQQALDRLMKNRTTIMVAHRLSTIKNADQISVIQDGKIIEQGTHSTLIDNTNGPYYKLINIQQQQQQQL
modifications: ABC+PTR Transporter amino acid sequence (of the 12 identified gene products)
effect on the uptake of CBD in tobacco BY-2 cells ([3]; 5 hour uptake, FIG. 7): strong effect
inhibition of yeast growth in response to CBD, transporter-expressing yeast vs control yeast ([1]; FIG. 2): reduced inhibition of growth
net uptake of CBD into yeast cells compared to control (empty vector) yeast [4]: reduced net uptake of CBD
